# B1: DmNAT1 (Drosophila melanogaster) (protein)
# chain: MELKGVQPSNGSSNGSGNGATNAASTEKTDAEKPTAERTNWGNGLEFLMSCISVSVGLGNVWRFPFTAYENGGGAFLIPYIIVLFLIGKPMYYLEMIMGQFTSQGTVKIWSVVPGFVGVGYGQAFGTICIISYYSSLLALTLYYLFVSFQSELPWSYCRDEWTNCVNSRPQEYVDNLLTGVSLANESARNLSGIVANDETEKLQSSSELYFLNVVIKEKLDISDGVGDPDWKLTLALFVAWVVIFLVIMRGVKSSGKAAYFLALFPYVVLFVLLIRAVTLEGARDGILFFLEPQWGELLNPTVWKEAVVQCFFSLAVGSGPIIMFASYNRFDHGIYRDAMIVTTLDTLTSLLGGITIFAILGNLAHNLQIENIRDVVRSGTGLAFISYPDAISKFQAVPQLFSVLFFFMLFVLGIGSIVALQSTIVTIICDQFKGWKYWKVALTTSVCGFLMGLVYVTPGGQWILTLVDFYGGTYVVFILAIFELAGIVWVYGLQNFCDDIEFMCNRRVSLYWRVCWSFFTPVMMIIIFIYSMVTIEPIKYSELYFPEAANIAGWLLFAIGAAQFPLWGLWYISRHPQGTYWKSLKASLKPSDRWGPANPEIRREWVIFKNQKAAQRATQKDTSKLGFFWRKVANFCGSNK
# How the values were obtained:
# Conditions in all cases: holding potential -50 mV; Na+ medium (about 96 mM Na+); Hill coefficient about 1
# [1] = substrate: N[C@@H](Cc1ccc(O)cc1)C(=O)O; type: cell-based, Drosophila melanogaster
# [2] = substrate: N[C@@H](Cc1ccccc1)C(=O)O; type: cell-based, Drosophila melanogaster
# [3] = substrate: N[C@H](Cc1ccc(O)cc1)C(=O)O; type: cell-based, Drosophila melanogaster
# [4] = substrate: CSCC[C@H](N)C(=O)O; type: cell-based, Drosophila melanogaster
# [5] = substrate: N[C@@H](Cc1c[nH]cn1)C(=O)O; type: cell-based, Drosophila melanogaster
# [6] = substrate: N[C@H](CS)C(=O)O; type: cell-based, Drosophila melanogaster
# [7] = substrate: CSCC[C@@H](N)C(=O)O; type: cell-based, Drosophila melanogaster
# [8] = substrate: N[C@@H](Cc1ccc(O)c(O)c1)C(=O)O; type: cell-based, Drosophila melanogaster
# [9] = substrate: N[C@@H](CS)C(=O)O; type: cell-based, Drosophila melanogaster
# [10] = substrate: CC(C)[C@H](N)C(=O)O; experiment: cells, lysate or membranes
# [11] = substrate: CC(C)C[C@@H](N)C(=O)O; experiment: cells, lysate or membranes
# [12] = substrate: O=C(O)[C@@H]1CCCN1; experiment: cells, lysate or membranes
# [13] = substrate: N[C@@H](CO)C(=O)O; experiment: cells, lysate or membranes
# [14] = substrate: CC(C)[C@@H](N)C(=O)O; experiment: cells, lysate or membranes
# [15] = substrate: N[C@H](Cc1ccccc1)C(=O)O; experiment: cells, lysate or membranes
# [16] = substrate: C[C@H](N)C(=O)O; experiment: cells, lysate or membranes
# [17] = substrate: O=C(O)[C@H]1CCCN1; experiment: cells, lysate or membranes
# [18] = substrate: CC[C@H](C)[C@H](N)C(=O)O; experiment: cells, lysate or membranes
# [19] = substrate: CC(C)C[C@H](N)C(=O)O; experiment: cells, lysate or membranes
# [20] = substrate: N[C@H](CO)C(=O)O; experiment: cells, lysate or membranes
protein,measurement,setting,value
B1,K0.5,[1],96.8 ± 17.9 µM
same,K0.5,[2],58.3 ± 5.3 µM
same,K0.5,[3],64.3 ± 15.3 µM
same,K0.5,[4],39.8 ± 12.7 µM
same,K0.5,[5],188.5 ± 37.9 µM
same,K0.5,[6],141.0 ± 28.6 µM
same,K0.5,[7],24.7 ± 9.9 µM
same,K0.5,[8],242.3 ± 57.9 µM
same,K0.5,[9],199.1 ± 18.8 µM
same,K0.5,[10],96.8 ± 20.2 µM
same,K0.5,[11],92.2 ± 34.8 µM
same,K0.5,[12],127.6 ± 44.9 µM
same,K0.5,[13],119.7 ± 18.6 µM
same,K0.5,[14],170.2 ± 38.3 µM
same,K0.5,[15],55.2 ± 10.3 µM
same,K0.5,[16],255.6 ± 76.8 µM
same,K0.5,[17],142.4 ± 38.5 µM
same,K0.5,[18],130.1 ± 37.5 µM
same,K0.5,[19],126.2 ± 39.8 µM
same,K0.5,[20],128.1 ± 21.3 µM

# — article PMC2676678
